Experiments:
[1] = molecular target: gH-Lg CTSCR / HSV-1 gL (herpes simplex virus 1 (strain KOS)) (UniProt P10185); assay: split reporter (BiFC, NanoBiT); live CHO effector cells transfected with the two BiT-tagged partners and the remaining HSV-1 proteins required for fusion; Endurazine substrate; luminescence every 2 min at 37°C for 1 h before and 7.5 or 8 h after adding target CHO cells with or without nectin-1; quantified as area under the curve
[2] = molecular target: gH-Lg TMDEBV / HSV-1 gL (herpes simplex virus 1 (strain KOS) | Epstein-Barr virus) (UniProt P10185); assay: as above
[3] = molecular target: gH-Lg TMDEBV-CTSCR / HSV-1 gL (herpes simplex virus 1 (strain KOS) | Epstein-Barr virus) (UniProt P10185); assay: as above
[4] = molecular target: HSV-1 gH-Lg expressed without gL (herpes simplex virus 1 (strain KOS)) (UniProt P06477); assay: split reporter (BiFC, NanoBiT); as the NanoBiT assay in live CHO cells, but in the absence of HSV-1 gL (gH stays in the ER)
Chain of UniProt P06477 (P06477 19-838): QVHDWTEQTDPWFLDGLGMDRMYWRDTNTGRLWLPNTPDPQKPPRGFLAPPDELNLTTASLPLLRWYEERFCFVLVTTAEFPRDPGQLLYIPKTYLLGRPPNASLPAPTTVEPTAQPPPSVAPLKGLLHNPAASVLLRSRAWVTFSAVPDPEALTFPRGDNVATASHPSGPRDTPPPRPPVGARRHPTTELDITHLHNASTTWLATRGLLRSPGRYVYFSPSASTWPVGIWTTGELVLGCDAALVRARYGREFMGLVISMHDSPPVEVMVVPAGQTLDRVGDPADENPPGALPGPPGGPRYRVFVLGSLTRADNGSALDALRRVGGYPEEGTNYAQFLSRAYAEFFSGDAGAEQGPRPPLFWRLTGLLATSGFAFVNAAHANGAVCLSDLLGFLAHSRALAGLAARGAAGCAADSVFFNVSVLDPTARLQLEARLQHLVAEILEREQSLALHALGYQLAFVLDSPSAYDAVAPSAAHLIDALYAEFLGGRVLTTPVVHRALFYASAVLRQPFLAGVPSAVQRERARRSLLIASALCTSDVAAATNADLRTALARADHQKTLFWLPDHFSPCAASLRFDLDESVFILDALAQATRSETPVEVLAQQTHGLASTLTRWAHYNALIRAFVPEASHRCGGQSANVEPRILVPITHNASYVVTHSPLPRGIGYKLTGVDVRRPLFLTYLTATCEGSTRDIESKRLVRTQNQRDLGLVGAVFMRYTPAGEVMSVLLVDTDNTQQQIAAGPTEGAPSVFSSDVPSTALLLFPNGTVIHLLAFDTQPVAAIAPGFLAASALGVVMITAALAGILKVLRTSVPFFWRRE

## HSV-1 gB-Sm (from UniProt P06437 31-904) (natural protein)
[1]
  percent of the interaction of WT HSV-1 gH-Lg/gL: 60%
[2]
  percent of the interaction of WT HSV-1 gH-Lg/gL: 60%
[3]
  percent of the interaction of WT HSV-1 gH-Lg/gL: 54%

## HSV-1 gD-Sm (from UniProt Q69091 26-394) (natural protein)
[4]
  fold reduction in the absence of gL (against gH-Lg/gL): 6 fold
[3]
  percent of the interaction of WT HSV-1 gH-Lg: 45%
